# Assay results: the DeepSol protein solubility set
# Assay: soluble on expression in E. coli; label from the status in PepcDB or PDB records
row,Sequence,soluble on expression in E. coli
1,MGSDKIHHHHHHMTIALTGGGTGGHLAIVRCLLESAIKKNIECVYIGSQNGQDKAWFENEVRFKEKFFLSSKGVVNQSKFDKISSLLHTLKLSKDCREIFKKYHIQAVFSVGGYSAAPASFAALFSHLPLFIHEQNSKSGSLNMLLKPFATKFFSAFEKEISPYPVADKFFDNARIRKELKNIIFLGGSQGAQFINELALNLAPKLQEQNIKIIHQCGKNDFEKCKKHYQSLNIQADIFDFSLNLEEKMKNADLAISRAGASTLFELCANTLPTIFIPYPYAAKNHQYFNAKFLQDQALCQIFMQNSINLDEFFKSILKLNLENISTRLQNITQKNGADMLIQKALFDNLTFIR,not soluble
2,MSLIEKLRNIAIIAHVDHGKTTLVDKLLQQSGTFDSRAETQERVMDSNDLEKERGITILAKNTAIKWNDYRINIVDTPGHADFGGEVERVMSMVDSVLLVVDAFDGPMPQTRFVTKKAFAYGLKPIVVINKVDRPGARPDWVVDQVFDLFVNLDATDEQLDFPIVYASALNGIAGLDHEDMAEDMTPLYQAIVDHVPAPDVDLDGPFQMQISQLDYNSYVGVIGIGRIKRGKVKPNQQVTIIDSEGKTRNAKVGKVLGHLGLERIETDLAEAGDIVAITGLGELNISDTVCDTQNVEALPALSVDEPTVSMFFCVNTSPFSGKEGKFVTSRQILDRLNKKLVHNVALRVEETEDADAFRVSGRGELHLSVLIENMRREGFELAVSRPKVIFREIDGRKQEPYENVTLDVEEQHQGSVMQALGERKGDLKNMNPDGKGRVRLDYVIPSRGLIGFRSEFMTMTSGTGLLYSTFSHYDDVRPGEVGQRQNGVLISNGQGKAVAFALFGLQDRGKLFLGHGAEVYEGQIIGIHSRSNDLTVNCLTGKKLTNMRASGTDEAVVLVPPIRMTLEQALEFIDDDELVEVTPTSIRIRKRHLTENDRRRANRAPKDEGHHHHHH,soluble
3,MSLQNADRLSREYVAGVNFLLSNQQDKAVDLFLEMLKEDSSAFEAHLTLGNLFRSRGEVERAIRIHQSLMESASLTFDQRLLATQQLGRDYMSAGLYDRAENMFAQLVNEKDFQENAFQSLLTIYQSTSDWKKAIDIAEKLVKSGKHDLREKIAHFYCELALQEMSGDDLDEAIGYLNKAVQADKNCARVSIMLGRLFMARQEYNKAADALKSVLEQDKQLVSEVLPILQECYQHQNQIDEWENFLKRCVEEDCGATAELLLADIIEQQKGHEVAQTYINHRLERHPTMRLFYRLMDYHLAEAEEGRAKESIILLRDMVGEQIRTKPNYRCHKCGFTSHSLYWHCPSCRSWDSIKPIRGLDGQEGHHHHHH,not soluble
4,MKTRITELLKIDYPIFQGGMAWVADGDLAGAVSKAGGLGIIGGGNAPKEVVKANIDKIKSLTDKPFGVNIMLLSPFVEDIVDLVIEEGVKVVTTGAGNPSKYMERFHEAGIIVIPVVPSVALAKRMEKIGADAVIAEGMEAGGHIGKLTTMTLVRQVATAISIPVIAAGGIADGEGAAAGFMLGAEAVQVGTRFVVAKESNAHPNYKEKILKARDIDTTISAQHFGHAVRAIKNQLTRDFELAEKDAFKQEDPDLEIFEQMGAGALAKAVVHGDVDGGSVMAGQIAGLVSKEETAEEILKDLYYGAAKKIQEEASRWTGVVRND,not soluble
5,MIIPLVFLIGFAAAGNFGSSSSESCEDGNGGGRPRPGNGGGRPPGNGNGNGNGGGRPTNGGCDAGWRRFNRPNGGWCVRVFGARMTQADAQIQCQSYGATLSSLQNMEEALQINNMALSVIKANTGSVWIGAKRTTACLKQWLWTNGCGRQNSFAWTDGSATGVAGFVWDNLQPDNDELKQPCAVMLAARAAVTWGGKFWQPAMLDDNNCMFDLEGKHPRSVYGYVCGKNSRA,not soluble
6,MGKDGEGDKKRETMAVMSLMKDQQNPIQQFQVKFKEIETGFKSWLSKQKLPVEAAVVTAMGGVQGAFIGGLMGTLSPEMPQAGIDPQAMASLKQTQALVGGPLVQARNFAAITGVNAGIACVMKRIRGKEDLESAVVAAFGSGVAYSLVSAGLQGQPMNAITTAAGFAVFQGVFFKLGERFSKPSVEDPYYTRGRSMLLKLGLEKYEKNFKKGLLADPTLPLLTDSALRDVSIPPGPRLLILDHIQRDPELKGKRGSRG,not soluble
7,MAHHHHHHMSGITVQLVFAFVGTRVPYFMPESATAASSPARSPFGNASSVSFNAAAQPTLRADSARTSPRLTPCIPTNLFTAHGLLSHLAKALEPSLHAAANPEAATAESASLSPTAPLPFHKPPVFELFDYASLDPLEGSAALRDEQVLLVLCDIATTAQLVEALQLEWLEVYSGVHHPHHRSCSASTPEPAHTTDMAVCTTEEKLRNVAHAQQALCKPVGLHLSLLRKELLSREATLAAQKEQLAQMRSCTTEGTAPAAPATASGSDGLSTPMLSGRAASFPLLVELEPSLSSEPAPSATDATHLQKLEAPLALCEARVRAVESLMQRAAKHHTKLLGLAASERATEEAFQRGNVSRACAEYLEHTEQDRSAAEAIIADYQVEMTRQVKVVRQLIAYITQVRKLASKAKYEMGVVELILSRLSLTSLRPRLMKEAEALLRRRVILRRAARRQMLLLQETEFVKLQQDLESFSQRMEVQKVLPEKVRWYLRAPLPSLMPEEDPVATLLDHALIDREEDEAQELVEKTRVYTADSSDPEKNALQITEALLPVERLARRLEEARASAAQYKSRVEELEERLKLYETAEALSPPPLQDSAVKSPSTERPAEGGGSFEEG,soluble
8,MGHHHHHHSHMDKQSSAGGVKRSVPCDSNEANEMMPETPTGDSDPQPAPKKMKTSESSTILVVRYRRNFKRTSPEELLNDHARENRINPLQMEEEEFMEIMVEIPAK,not soluble
9,MAKNDIWTPLESNPDSLYLYSCKLGQSKLKFVDIYGFNNDLLDMIPQPVQAVIFLYPVNDNIVSENNTNDKHNLKENFDNVWFIKQYIPNSCGTIALLHLYGNLRNKFELDKDSVLDDFFNKVNEMSAEKRGQELKNNKSIENLHHEFCGQVENRDDILDVDTHFIVFVQIEGKIIELDGRKDHPTVHCFTNGDNFLYDTGKIIQDKFIEKCKDDLRFSALAVIPNDNFDII,soluble
10,MGSDKIHHHHHHMEILLARQPIVDRFGSIDAFELLYRSVETPAVFDGDLATMDVLTNTLIHLGVDRVAEGKRLFINFTGDLLQSELIDHLNPTQFVIEVLETVQIDEMMLQTLQKWKEAGFVLALDDFVTDLLRHHGPELFDLIDLIKIDIEAINPREQSAILHILKRNYPHIRFLAERVETHEDHTRSLAMGYDWFQGYFYAKPMLMKGKAVPPQVPVLLKMLKWLDTDDHYDDVVDEIEGNPYISVQVLQLINSPGIGLRNMVSSVRQAISLLGFSQLKSWISLIVLREMKLASPYQWSDELLRSSLHCAKLCQLFATETKTLKAESAYMIGLLSHIDALLSVDIGEIIDQLPIEPALKNVLQGEDHPFRDCLLLAISADRGEFERFEMLSNRFGIMKHRAYELLKESQVWLSQKELHLQDKTDSIV,not soluble
11,MKHSVNAMAGGHGAARYNSTDLPKLPAPQPIKTLKHFLDFAQALQSKKEFQETKQIVNDFVVKDLPKLQELLQKRADALPNWLTPWWLNIAYLAARTPLPVVTSPGVMFPKFDYNTEEGQLEYAAKISQAAVHFYLRAKNNQLKPDMAGKSPLDMSQYQFLFGTTRVPKVGVDEIRYGCDYKEKLQHILVIRNGHLFRVQVLDSNEQPLSIFAITQQLAKVVSESQTPNPHPVGIVSSDSRDKWANVYSSLKKDNNNAKSLEAVEKSLFVVCLDKASEPPVGYTEKDEQSRQALHGGGSKVNSSNRWFDKTIQFVIGTNGYTGMTYEHTPAEGPPVGALMDFICDQFDANTFITEGTPSNSPVQRLDISTDEEINKRIAKSSKNMDSIAEDLDIVAFTFKPYGKNFPKSSKISPDSFIQMAYQLAFYRIHSSLPPTYETATLRKFTEGRTENIRSPNTAAASFVKKMVSKPPTPVSEIYDALVHATNSHKKYTMDCMDAAGMDRHLLAWKLIATENNLPTPEIFGSNIYQQLNHFQVSTSQVPTRHFIQMCFGPSALDCYGICYNPQETELHFMISTFKSYGSTSSKKFAKELQKALIDMKSVINKATKEMSKL,not soluble
12,MHVDPIVEALIIRRKEHGLSREQMANIAGMSVKTYQRIERGESDLKLSQYRSILRSLNLTDLDIALDIRGIEHVTAEDLVTVARLLSPEAQSLLVRLLSLVLEQRSDPNAS,not soluble
13,MGSDKIHHHHHHMLRRIKAEQLQVGMFVARLGGPWHARAFRRSRFLVTSEEQVGEIRSSGVDEVWIDILKGRNAPTPQAATSPWETPEPAPALATANSLPAEFGLARELLQSGKSVIGSMFADVRMGRALEVSGALLLVDSASQSLSRHSQALIALARLKARDDYSYMHAFAVCALMVAVGRTMELPPEEVRDLGLAGLLHDIGKLTLPEAVLHKPTSRRPGEDEEIKRHPSAGYRILNEARLNANIVLDVCVHHHERVDGRGYPFGLVGRELSVHARIAAICDTYDSLTSSRPGHQQWSPARAMEYMAVRVDTLFDSRVFKAFTRTVGIYPLGTVLRLRSNRLAVVCAQHESEPLRPRVMAFYSVSASSALTPEVIDLSTSDDTVVAFEDPADWGYTDEQLLAIYAGQGQAGAAQAAAMAMPAA,not soluble
14,MNRDDAPPIPDALSHRQLNRWLETAMQESSTPAKESNDILSAELERWANHTRFLLQRMAHKGDAIGSDRSPQQVMALGSFRTHLMLGLQALKASQPGR,not soluble
15,MSLPQKSKVMHIARTLTGSTTQDEGQERQEAKTQDCQEDKRPETLVKGNGNNMECSRLREKQGVLIANRDGGTR,not soluble
16,MLIAFEGIDGSGKTTQAKKLYEYLKQKGYFVSLYREPGGTKVGEVLREILLTEELDERTELLLFEASRSKLIEEKIIPDLKRDKVVILDRFVLSTIAYQGYGKGLDVEFIKNLNEFATRGVKPDITLLLDIPVDIALRRLKEKNRFENKEFLEKVRKGFLELAKEEENVVVIDASGEEEEVFKEILRALSGVLRV,soluble
17,MSRSDAGRPAPTGADADRRTMVLESAMATFARFGYRKTSMEEVARAAHISRPGLYFLFSSKESLFRAAVTQALHRDITAVERALADGDRPLPERLVEAFDHWAGRYVGPLTRDVATVIEANPGILGEVVEVLPRRFEELVTDAITVATGREGAVRIAQTMISASTGLKHQVGSRESYLERLTVAVGLLLR,not soluble
18,MHTVAVSGPPETGFRSVVCARRWLANPYAPGRPTVRCMNVDDHAEELASDLGVDKAEVKENLQNLVEYSVPLEEAKRSLRRKYGDDDGAPSGGPTAVDIADVDTDSGNVTVTATVLTAGKRSIRYQGDDHVIGEGELADETGRISYTAWEEFGLEPGDTVTIGNASVREWEGSPELNFGESATVTSADGDIEMAAEVGGDRDLAALSAGDRGRNVEAVVTEVEERTIDGRDGETEILSGVLGDETARLPFTDWDPHGEIEAGASVRIEDVYVREFRGVPSVNVSEFSTVERLDHEVEVGGPTRMAIRDAVARGGAYDVELVGSVIDIRDGSGLIKRCPDCGRVVQTGQCRQHGAVEAEDDLRVKAVLDDGTDSVTAILDRELTADVYGGTLADAREQAREAMDHSVVADTIAEDVVGREFRVRGHLSVDEYGANLETIAFAERDDDPAARAAAFLAEVDALEHHHHHH,not soluble
19,MGHHHHHHSHMRGCGSRRLCGSWRGCWSWSGKPSTSSRPSPTAALRSWNNENKSALQLERQVKELKLGEPGSYQPAETAAKAQLSLMALPGEGYGGGHLDNEEEAPRPMLNIPGDLESREAMVAFFNSAGASAQEEQSVCCQPLAHPVASSQKKPEAAAPAPETGGESVCGDTHWALQEAMEKLQQLYGRRRWT,not soluble
20,MTTTEVKMFTFNSVAENTYILYDSTGEAALIDCGCMDGSEEQQLLRFVQEQQLTVKLLLNTHLHFDHAWGNGFAAKTFGLPVLTHRAEVEEMPSPSKQLAAFGMFGTMDEPPIQYIAPGDVLQLGESIIKVLFVPGHSPGHLAFYCPQAQAVFTGDALFAGDMGRTDLWGGSYELLKKSIRTELLPLPDDTVVYPGHGPTSTIAYERTNNPFLD,not soluble
